Source: paper PMC5449603
Like-named read-outs stand apart in the source and are kept apart here.

What was measured:
Experiment in all cases: fluorescence anisotropy
[1] = molecular target: T1, Sub1 (Saccharomyces cerevisiae, UniProt P54000 1-292)
T1 sequence: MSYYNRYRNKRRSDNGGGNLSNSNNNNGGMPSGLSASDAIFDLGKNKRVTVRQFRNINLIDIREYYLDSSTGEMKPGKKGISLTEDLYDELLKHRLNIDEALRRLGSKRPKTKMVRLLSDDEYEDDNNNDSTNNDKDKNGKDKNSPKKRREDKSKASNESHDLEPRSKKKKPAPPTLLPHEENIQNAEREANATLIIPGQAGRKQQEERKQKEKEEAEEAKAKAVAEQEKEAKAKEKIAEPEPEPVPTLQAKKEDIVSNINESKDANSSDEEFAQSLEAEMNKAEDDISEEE

[2] = molecular target: PC4 (hSub1, p15) (human, UniProt P53999 1-127)
[3] = molecular target: T1, Sub1; remark: listed apart in the source

With GAGCTGGGGTGAGCTGGGCTGAGCTGGGGTGAGCTGGGCTGAGCT (structured_DNA) [SµG (FAM)] the Kd [1] was 8.7 ± 1.7 nM.

B1: Duplex (FAM) (dsDNA)
DNA 1: GATACTATTGGGTGGGTAGGGTGGGTTTACATGT
DNA 2: ACATGTAAACCCACCCTACCCACCCAATAGTATC
In the case of B1, the Kd [2] is reported as 38.7 ± 8 nM and the binding result [1] is reported as “no binding”.

In the case of GGTGTGTGGAGCGTGCGTTT (ssDNA) [ssDNA (FAM)], the Kd [3] is reported as 21.2 ± 1.1 nM and the Kd [2] is reported as 9 ± 0.9 nM.
